{
  "source": "paper PMC9427990",
  "about": "“Dynamic mechanisms of CRISPR interference by Escherichia coli CRISPR-Cas3”",
  "data": [
    {"molecular_target": "T1, EcoCascade-crRNA(EMX1) (Escherichia coli, UniProt Q46901;P76632;Q46899;Q46898;Q46897 1-502;1-160;2-363;1-224;2-199)", "T1 sequence 1": "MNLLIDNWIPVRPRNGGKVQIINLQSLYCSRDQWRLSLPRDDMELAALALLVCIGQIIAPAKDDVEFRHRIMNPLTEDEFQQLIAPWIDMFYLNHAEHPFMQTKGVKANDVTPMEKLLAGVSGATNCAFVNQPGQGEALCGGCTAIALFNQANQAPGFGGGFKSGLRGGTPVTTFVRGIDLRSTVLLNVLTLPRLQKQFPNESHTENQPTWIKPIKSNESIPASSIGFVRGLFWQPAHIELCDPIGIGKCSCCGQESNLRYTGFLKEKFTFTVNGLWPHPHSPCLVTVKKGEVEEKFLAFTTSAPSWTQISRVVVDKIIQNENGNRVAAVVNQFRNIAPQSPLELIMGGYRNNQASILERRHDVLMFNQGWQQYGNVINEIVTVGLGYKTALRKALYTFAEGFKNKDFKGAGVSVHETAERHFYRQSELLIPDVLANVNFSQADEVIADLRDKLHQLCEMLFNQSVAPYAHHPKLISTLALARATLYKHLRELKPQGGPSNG", "T1 sequence 2": "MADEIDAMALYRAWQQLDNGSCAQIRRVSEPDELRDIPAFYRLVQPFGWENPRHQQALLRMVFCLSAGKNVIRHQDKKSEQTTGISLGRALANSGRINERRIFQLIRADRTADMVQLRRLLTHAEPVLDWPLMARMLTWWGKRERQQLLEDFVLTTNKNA", "T1 sequence 3": "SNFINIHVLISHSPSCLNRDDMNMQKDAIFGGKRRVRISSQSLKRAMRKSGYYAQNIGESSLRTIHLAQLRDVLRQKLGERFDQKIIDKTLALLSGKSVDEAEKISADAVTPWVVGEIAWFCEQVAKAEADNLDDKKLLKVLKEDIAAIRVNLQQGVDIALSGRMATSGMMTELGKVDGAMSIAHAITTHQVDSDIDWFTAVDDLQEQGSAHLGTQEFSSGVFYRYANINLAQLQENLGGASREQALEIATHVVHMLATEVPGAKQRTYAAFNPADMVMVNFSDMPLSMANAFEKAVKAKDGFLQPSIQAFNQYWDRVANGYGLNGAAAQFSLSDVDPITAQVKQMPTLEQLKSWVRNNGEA", "T1 sequence 4": "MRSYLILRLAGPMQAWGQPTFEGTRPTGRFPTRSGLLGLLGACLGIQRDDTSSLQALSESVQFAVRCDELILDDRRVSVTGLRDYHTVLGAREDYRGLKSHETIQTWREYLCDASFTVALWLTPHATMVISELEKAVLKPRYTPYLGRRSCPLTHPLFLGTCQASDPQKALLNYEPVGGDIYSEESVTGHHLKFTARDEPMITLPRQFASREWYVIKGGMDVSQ", "T1 sequence 5": "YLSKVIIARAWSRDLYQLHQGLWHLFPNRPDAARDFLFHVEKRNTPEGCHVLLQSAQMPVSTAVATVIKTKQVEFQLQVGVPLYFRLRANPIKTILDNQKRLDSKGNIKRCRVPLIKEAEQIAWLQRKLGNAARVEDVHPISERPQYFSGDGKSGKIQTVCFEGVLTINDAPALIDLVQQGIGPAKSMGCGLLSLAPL", "assay": "BLI; BLI: PBS, 0.01% Tween 20, 0.02% BSA, 20 uM EcoCascade analyte, biotinylated DNA on streptavidin; temperature not stated; EMSA conditions not in material", "details": "protein: recombinant; tags: hexahistidine tag on Cas11, removed with HRV3C; copies: 1;2;6;1;1; label: Biotin-TEG; blunt", "values": [
      {"binder": "EMX1-AAG-0-bio (n0) (dsDNA) DNA 1: TGGCGCATTGCCACGAAGACTTAACCGTTTTCTTCACGATCGTGACAAGACAATGACTAG DNA 2: CTAGTCATTGTCTTGTCACGATCGTGAAGAAAACGGTTAAGTCTTCGTGGCAATGCGCCA", "binding result": "no binding"},
      {"binder": "EMX1-AAG-6-bio (n6) (dsDNA) DNA 1: TGGCGCATTGCCACGAAGCAGGCCCCGTTTTCTTCACGATCGTGACAAGACAATGACTAG DNA 2: CTAGTCATTGTCTTGTCACGATCGTGAAGAAAACGGGGCCTGCTTCGTGGCAATGCGCCA", "binding result": "no binding"},
      {"binder": "EMX1-AAG-12-bio (n12) (dsDNA) DNA 1: TGGCGCATTGCCACGAAGCAGGCCAATGGGTCTTCACGATCGTGACAAGACAATGACTAG DNA 2: CTAGTCATTGTCTTGTCACGATCGTGAAGACCCATTGGCCTGCTTCGTGGCAATGCGCCA", "binding result": "no binding"},
      {"binder": "EMX1-AAG-32-bio (n32, paired PAM) (dsDNA) DNA 1: TGGCGCATTGCCACGAAGCAGGCCAATGGGGAGGACATCGATGTCACCTCCAATGACTAG DNA 2: CTAGTCATTGGAGGTGACATCGATGTCCTCCCCATTGGCCTGCTTCGTGGCAATGCGCCA", "binding result": "binds"}
    ]}
  ]
}
